Results from publication PMC8632965.

Target: T1, extracellular portion of CD98 (212-630 of CD98hc)
T1 chain: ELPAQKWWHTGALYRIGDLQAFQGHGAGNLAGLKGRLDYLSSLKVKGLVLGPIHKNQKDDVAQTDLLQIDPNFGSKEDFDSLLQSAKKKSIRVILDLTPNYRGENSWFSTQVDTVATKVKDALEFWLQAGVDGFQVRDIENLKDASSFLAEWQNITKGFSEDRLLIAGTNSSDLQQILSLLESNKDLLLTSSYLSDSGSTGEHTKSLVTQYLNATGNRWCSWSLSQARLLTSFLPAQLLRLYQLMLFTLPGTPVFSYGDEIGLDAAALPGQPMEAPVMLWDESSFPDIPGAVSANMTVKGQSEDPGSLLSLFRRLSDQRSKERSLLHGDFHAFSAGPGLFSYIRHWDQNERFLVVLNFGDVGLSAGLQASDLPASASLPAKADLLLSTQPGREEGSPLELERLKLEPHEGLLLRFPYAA
Assay: SPR
Conditions: chain shown with the change;; parent: est. 24; read off a plot

B1: domain 1 of CD147, P35613-2 K63A (protein)
chain: AAGTVFTTVEDLGSKILLTCSLNDSATEVTGHRWLKGGVVLAEDALPGQKTEFKVDSDDQWGEYSCVFLPEPMGTANIQLHGPPRVKAVKSSEHINEGETAMLVCKSESVPPVTDWAWYKITDSEDKALMNGSESRFFVSSSQGRSELHIENLNMEADPGQYRCNGTSSKGSDQAIITLRVRSH
- response: 3.5 RU
